Where a chain is given by its changes, count along the chain named.

In test [1] the target is T1, full-length human CTLA4 expressed on cells (human, UniProt P16410 36-223).
T1 sequence (looked up): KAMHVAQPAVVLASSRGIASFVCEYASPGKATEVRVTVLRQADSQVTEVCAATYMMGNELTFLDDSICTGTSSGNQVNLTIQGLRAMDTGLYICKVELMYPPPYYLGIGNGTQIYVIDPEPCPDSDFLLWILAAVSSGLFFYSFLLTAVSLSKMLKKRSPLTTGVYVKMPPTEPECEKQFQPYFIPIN
Put plainly: cell-based or functional assay.

Test [2] addresses T2, human LAG3 on HEK293F cells (human, UniProt P18627 23-525).
T2 construct: whole, on cells
T2 sequence (looked up): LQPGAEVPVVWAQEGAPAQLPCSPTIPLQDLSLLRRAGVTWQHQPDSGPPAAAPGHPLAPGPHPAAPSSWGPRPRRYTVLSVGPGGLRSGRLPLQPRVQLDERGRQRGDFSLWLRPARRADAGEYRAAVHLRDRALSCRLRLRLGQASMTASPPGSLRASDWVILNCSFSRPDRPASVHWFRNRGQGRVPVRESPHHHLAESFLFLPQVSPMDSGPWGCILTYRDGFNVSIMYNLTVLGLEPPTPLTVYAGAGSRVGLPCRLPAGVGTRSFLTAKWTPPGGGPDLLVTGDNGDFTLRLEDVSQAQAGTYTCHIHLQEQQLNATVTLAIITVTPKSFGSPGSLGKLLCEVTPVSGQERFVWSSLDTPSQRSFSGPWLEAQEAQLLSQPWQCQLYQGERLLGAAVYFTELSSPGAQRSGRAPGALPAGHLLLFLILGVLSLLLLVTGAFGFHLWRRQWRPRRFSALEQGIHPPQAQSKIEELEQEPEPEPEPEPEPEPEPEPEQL
Nature of the test: flow cytometry, transfected HEK293F cells. As for the experimental part: (§1) Antibody selectivity was next examined. Human CTLA4, PD1, LAG3, Tim3, B7H3, CD95, TNFR1, OX40, CD40, PD-L1, BLTA, VISTA, PDL2, ICOS and B7H4 were transiently overexpressed on the surface of HEK293F cells. Transfected cells were washed in pre-chilled 1×PBSA buffer (1.76 mM KH2PO4, 10.14 mM Na2HPO4.12H2O, 2.68 mM KCl, 136.89 mM NaCl and 1% BSA), then incubated with 100 nM test antibodies for 1 hour on ice. Cells were washed once with staining buffer, and Alexa Fluor® 647 conjugated mouse anti-human FC antibodies were added and incubated for 30 minutes on ice, protected from light. Samples were washed once with staining buffer prior to analysis by flow cytometry.
On the technique in general: In flow cytometry, cells or beads pass a laser one at a time.

The target of test [3] is T3, biotinylated rat CTLA4 protein fused with human FC (rat, UniProt Q62859 36-161, Biotinylated; sites not stated).
T3 sequence: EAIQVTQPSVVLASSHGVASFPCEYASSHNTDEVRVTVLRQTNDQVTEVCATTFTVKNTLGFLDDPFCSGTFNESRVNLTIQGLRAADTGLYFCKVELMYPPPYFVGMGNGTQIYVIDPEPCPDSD
Put plainly: BLI (ForteBio), biotinylated rat CTLA4-Fc on SA sensor, IgG 15 ug/mL. The source says: The association and dissociation curves were fitted to a 1:1 Langmuir binding model using ForteBio Data Analysis 7.1 (Pall, USA) according to the manufacturer's guidelines.
For orientation: In BLI a coated tip is dipped into the sample, and binding shifts an interference pattern.

For test [4], the target named is T4, human B7H3 on HEK293F cells (human, UniProt Q5ZPR3 29-534).
T4 construct: whole, on cells
T4 sequence (looked up): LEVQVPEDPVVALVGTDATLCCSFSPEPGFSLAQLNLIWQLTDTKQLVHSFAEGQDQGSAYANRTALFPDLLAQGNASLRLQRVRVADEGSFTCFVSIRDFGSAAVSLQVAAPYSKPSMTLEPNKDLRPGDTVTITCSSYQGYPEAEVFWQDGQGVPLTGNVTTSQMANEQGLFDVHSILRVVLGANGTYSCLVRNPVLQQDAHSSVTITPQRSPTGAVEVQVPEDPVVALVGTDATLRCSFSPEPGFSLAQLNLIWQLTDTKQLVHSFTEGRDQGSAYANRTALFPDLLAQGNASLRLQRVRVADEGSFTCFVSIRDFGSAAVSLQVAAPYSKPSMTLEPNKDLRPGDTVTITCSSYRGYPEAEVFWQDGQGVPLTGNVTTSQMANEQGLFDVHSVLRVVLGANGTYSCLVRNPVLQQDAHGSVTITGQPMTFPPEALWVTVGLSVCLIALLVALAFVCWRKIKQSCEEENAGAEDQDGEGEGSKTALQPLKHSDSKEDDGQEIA
Nature of the test: flow cytometry, transfected HEK293F cells [Cont.]. Here is the method:
as §1

The target of test [5] is T5, human Tim3 on HEK293F cells (human, UniProt Q8TDQ0 22-301).
T5 construct: whole, on cells
T5 sequence (looked up): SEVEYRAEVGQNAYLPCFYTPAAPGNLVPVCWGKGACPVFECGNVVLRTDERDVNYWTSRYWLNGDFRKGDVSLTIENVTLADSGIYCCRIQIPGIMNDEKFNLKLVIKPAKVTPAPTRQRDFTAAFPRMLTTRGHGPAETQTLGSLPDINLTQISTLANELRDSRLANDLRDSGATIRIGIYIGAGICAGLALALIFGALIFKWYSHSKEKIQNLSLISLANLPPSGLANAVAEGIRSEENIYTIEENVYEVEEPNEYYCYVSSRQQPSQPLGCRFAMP
Put plainly: flow cytometry, transfected HEK293F cells [Cont.]. Here is the method:
as §1

The target of test [6] is T1, full-length human CTLA4 expressed on …. Put plainly: flow cytometry blocking: HEK293F cells with human CTLA4, 100 nM antibody, then 100 nM CD80-Fc-Bio (blocked ligand); PBSA panel: Mean 157692, 26.3%.
For test [7] the target is unchanged. Nature of the test: flow cytometry blocking: HEK293F cells with human CTLA4, 100 nM antibody, then 100 nM CD86-Fc-Bio (blocked ligand); PBSA panel: Mean 10678, 12.2%. Here is the method: Antibodies were also tested for their ability to block binding of CTLA4 to its cognate ligands CD80 and CD86 by flow cytometry. The plasmid encoding full-length human CTLA4 was transiently expressed in HEK293F cells. Cells were washed with staining buffer (PBSA buffer including 1.76 mM KH₂PO₄, 10.14 mM Na₂HPO₄.12H₂O, 2.68 mM KCl, 136.89 mM NaCl and 1% BSA), and resuspended in staining buffer containing 100 nM test antibodies. […] Cells were washed once, and analyzed by CytoFlex flow cytometry.

The target of test [8] is T6, human CD40 on HEK293F cells (human, UniProt P25942 21-277).
T6 construct: whole, on cells
Nature of the test: flow cytometry, transfected HEK293F cells [Cont.]. Here is the method:
as §1

T6 sequence (P25942 21-277): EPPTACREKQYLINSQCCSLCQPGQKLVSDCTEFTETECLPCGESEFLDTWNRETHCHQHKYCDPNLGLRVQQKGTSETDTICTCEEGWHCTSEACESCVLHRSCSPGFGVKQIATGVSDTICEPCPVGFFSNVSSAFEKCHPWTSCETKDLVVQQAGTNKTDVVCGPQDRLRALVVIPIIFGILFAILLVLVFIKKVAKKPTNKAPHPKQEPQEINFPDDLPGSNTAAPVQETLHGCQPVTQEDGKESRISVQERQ

B1: TY21691 (antibody, V domains shown)
VH: EVQLVESGGGLVQPGGSLRLSCAASGFTFSDYAIHWVRQAPGKGLEWIGIISPSGGSTKYAQKFQGRVTISRDNSKNTLYLQLNSLRAEDTAVYYCARLGYGYFDVWGQGTLVTVSS
VL: DIQLTQSPSSLSASVGDRVTITCRASQSVDFYGISFLHWYQQKPGKAPKLLIYDASSLESGVPSRFSGSGSGTDFTLTISSLQPEDFATYYCVQALQLPLTFGQGTKVEIK
notes: human IgG1 (hIgG1) from Fab hit B15736
One may read the Kd as the concentration at which binding is half-saturated. Low readings indicate higher affinity, high ones lower affinity. With B1, in test [1], the “EC50 for ADCC reporter signaling (Jurkat/NFAT-Luc/CD16 with HEK293F/hCTLA4 cells)” value is over 10 mg/L. In addition, in test [2], the binding result is reported as “no binding (tested: 100 nM)”. This molecule also showed a Kd in test [3] of 0.58 nM.

B2: TY21687 (antibody, V domains shown)
VH: EVQLVESGGGLVQPGGSLRLSCAASGFTFSGYAIHWVRQAPGKGLEWIGIISPSGGGTKYAQKFQGRVTISRDNSKNTLYLQLNSLRAEDTAVYYCARHPFAYWGQGTLVTVSS
VL: DIQLTQSPSSLSASVGDRVTITCRASQSVDFYGISFLDWYQQKPGKAPKLLIYDASNRATGIPSRFSGSGSGTDFTLTISSLQPEDFATYYCQQYVSSPPEYTFGQGTKVEIK
notes: human IgG1 (hIgG1) from Fab hit B15700
Consider B2, for which, in test [1], the “EC50 for ADCC reporter signaling (Jurkat/NFAT-Luc/CD16 with HEK293F/hCTLA4 cells)” value turned out to be 9.5 mg/L. For the same molecule, the binding result in test [4] and in test [5] was “no binding (tested: 100 nM)” each time. The same molecule gave a Kd in test [3] of 0.78 nM.

B3: TY21585 (antibody, V domains shown)
VH: EVQLVESGGGLVQPGGSLRLSCAASGFTFSDYAIHWVRQAPGKGLEWIGIISPSSGSTNYAQKFQGRVTISRDNSKNTLYLQLNSLRAEDTAVYYCARDIHSGSSGYYYGFDVWGQGTLVTVSS
VL: B2 VL with Q27E, Y32F, D38A, Q94H, V96T, E101V
notes: human IgG1 (hIgG1) from Fab hit B15709
With B3, in test [6], the “% of cells in upper right quadrant (CD80-positive) in the presence of the antibody” value was determined as 22.5%. In addition, the “Mean of the CD80 binding signal in the presence of the antibody” value in test [6] stood at 83700. In addition, the “% of cells in upper right quadrant (CD86-positive) in the presence of the antibody” value in test [7] was 3.43%. Also, the “Mean of the CD86 binding signal in the presence of the antibody” value in test [7] came to 5140. Besides, the binding result in test [2], in test [8], in test [4] and in test [5] was “no binding (tested: 100 nM)” in each case.

B4: TY21591 (antibody, V domains shown)
VH: EVQLVESGGGLVQPGGSLRLSCAASGFSLSTGGVAVSWIRQAPGKGLEWIGEIYHSGSTYYSPSLKSRVTISRDNSKNTLYLQLNSLRAEDTAVYYCARRIATATYFDYWGQGTLVTVSS
VL: DIQLTQSPSSLSASVGDRVTITCRASQTVFSRYLAWYQQKPGKAPKLLIYDASNRATGIPSRFSGSGSGTDFTLTISSLQPEDFATYYCQQSYYWPPWTFGQGTKVEIK
notes: human IgG1 (hIgG1) from Fab hit B15756
As to B4, in test [6], the “% of cells in upper right quadrant (CD80-positive) in the presence of the antibody” value turned out to be 24.9% and the “Mean of the CD80 binding signal in the presence of the antibody” value was determined as 68500. In addition, in test [7], the “% of cells in upper right quadrant (CD86-positive) in the presence of the antibody” value came to 0.61% and the “Mean of the CD86 binding signal in the presence of the antibody” value amounted to 4960. The binding result in test [8] is reported as “no binding (tested: 100 nM)”.

For the origin of these results see patent US20190241662A1 (ADAGENE, published 2019).
